Laboratory results from patent CN111690062A (UNIV FUDAN, dated 2020).

Target: T1, Plasmodium falciparum PfRh5 protein (recombinant, expressed in Sf9 insect cells) (Plasmodium falciparum (恶性疟原虫), UniProt Q8IFM5 25-526, limits assumed)
T1 construct: In the BLI assay the protein was amine-coupled to AR2G sensors; also called 恶性疟PfRh5蛋白; PfRh5蛋白
T1 sequence (looked up): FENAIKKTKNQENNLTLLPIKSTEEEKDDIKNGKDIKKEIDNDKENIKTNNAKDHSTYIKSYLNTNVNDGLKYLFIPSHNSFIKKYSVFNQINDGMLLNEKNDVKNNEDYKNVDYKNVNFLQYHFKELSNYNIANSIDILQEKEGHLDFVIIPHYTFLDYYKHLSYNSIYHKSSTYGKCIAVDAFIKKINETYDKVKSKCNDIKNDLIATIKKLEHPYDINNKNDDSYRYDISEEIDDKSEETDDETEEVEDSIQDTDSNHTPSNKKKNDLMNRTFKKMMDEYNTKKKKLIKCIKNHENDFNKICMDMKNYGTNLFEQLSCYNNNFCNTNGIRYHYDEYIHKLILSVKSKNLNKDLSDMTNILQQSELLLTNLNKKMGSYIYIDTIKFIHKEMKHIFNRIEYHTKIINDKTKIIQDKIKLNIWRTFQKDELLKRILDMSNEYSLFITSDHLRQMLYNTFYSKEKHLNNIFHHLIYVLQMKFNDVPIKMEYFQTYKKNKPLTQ
Experiment: BLI (Octet-Red96) at 37°C; PfRh5 amine-coupled to AR2G sensor; G9 as analyte at 1.2-100 nM in 3-fold dilutions; 1:1 fit

B1: G9 antigen-binding fragment (Fab), fully human, against Plasmodium falciparum PfRh5 (Fab, V domains shown)
VH: EVQLVQSGGGLVQPGGSLRLSCAASGFTFDDYAMHWVRQAPGKGLEWVAVIWYDGSNKYYADSVKGRFTISRDNSKNTLYLQMNSLRAEDTAVYYCAREHIDDPAMVPSPPAFDIWGQGTMVTVSS
VL: EIVLTQSPATLSLSPGERATLSCRASQSVSSYLAWYQQKPGQAPRLLIYDASNRATGIPARFSGSGSGTDFTLTISSLEPEDFATYYCQQSYSTPRTFGQGTKLEIK
notes: also called 抗体G9; 克隆G9
  Kd: 4.9 nM
